# Read-outs that look alike come from different tables or passages of the source.
# Tests used:
# [1] = system: Immunoglobulin E (IgE) (Homo sapiens), P01854-1; assay: filter
# [2] = system: Immunoglobulin E (IgE) (Homo sapiens), P01854-1; assay: inhibition
# [3] = 2'-OMe C,U, deoxy A,G, FACS, 15 nM IgE
# [4] = dRmY: 2'-deoxy A,G, 2'-OMe C,U, 1xPBS, BSA, tRNA, ssDNA, 25 C
# Sequence of Immunoglobulin E (IgE) (Homo sapiens), P01854-1 (P01854 other isoform, or with tags, fused parts or gaps): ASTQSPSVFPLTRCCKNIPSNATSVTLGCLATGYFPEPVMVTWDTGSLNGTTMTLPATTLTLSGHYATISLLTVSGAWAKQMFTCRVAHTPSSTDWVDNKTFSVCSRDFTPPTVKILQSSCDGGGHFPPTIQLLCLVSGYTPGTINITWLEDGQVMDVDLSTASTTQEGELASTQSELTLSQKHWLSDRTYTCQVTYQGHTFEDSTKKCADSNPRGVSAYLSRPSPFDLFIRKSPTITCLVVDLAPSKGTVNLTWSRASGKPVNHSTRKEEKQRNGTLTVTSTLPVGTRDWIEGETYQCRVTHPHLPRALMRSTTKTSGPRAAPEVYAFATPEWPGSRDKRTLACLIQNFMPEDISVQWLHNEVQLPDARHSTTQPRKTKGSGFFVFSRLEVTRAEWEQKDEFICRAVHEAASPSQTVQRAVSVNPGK
sequence,measurement,setting,value
AGCCUGGGGACCCAUGGGGGGCU [ARC1644],Kd,"[1]; 2'-OMe/2'-deoxy mix, dI16,dI20, PS, 3' idT [16=dI, 20=dI (G parent), 24=3' inverted dT, phosphorothioate linkage N's left out (5^6, 7^8, 8^9, 15^16, 17^18, 18^19, 19^20, 20^21)], DPBS Mg/Ca, 0.1 mg/mL BSA, RT",1.7 nM
same,IC50,"[2]; 2'-OMe/2'-deoxy mix, dI16,dI20, PS, 3' idT [16=dI, 20=dI (G parent), 24=3' inverted dT, phosphorothioate linkage N's left out (5^6, 7^8, 8^9, 15^16, 17^18, 18^19, 19^20, 20^21)], FACS, 2.5 nM IgE",5.2 nM
GUUCUGGGGACCCAUGGGGGAAC [ARC442],Kd,"[1]; dRmY: 2'-deoxy A,G, 2'-OMe C,U, 1xPBS, BSA, 1 mg/mL tRNA, ssDNA, 25 C",174 nM
same,IC50,[2]; [3],58.9 nM
GGGGCTACTTTATCCGTACCTCCCAGTGGGTAGCCCC [ARC476],Kd,[1],0.2 nM
same,IC50,"[2]; FACS, 15 nM IgE",17.4 nM
GGGAAAAGCGAAUCAUACACAAGAGUCGCUAGAUUGCUAGUGUAUGGUUUAUCUAAAGGCGGCCGCUCCGCCAGAGACCAACCGAGAA [rRfY clone SEQ 13],Kd,"[1]; 2'-F C and U, biphasic, KD2 14.6 nM, 1xSHMCK + tRNA, RT",0.139 nM
same,IC50,"[2]; 2'-F C,U, ELISA FceR1-Fc, FACS 10.3 nM (Table 25)",4.3 nM
GCCUGGGGACCCAUGGGGGGC [ARC444],Kd,[1]; [4],73 nM
same,IC50,[2]; [3],52.4 nM
GGGGCTACTTTATCCGTCCCTCCTAGTGGGTAGCCCC [ARC475],Kd,[1],0.5 nM
same,IC50,"[2]; FACS, 15 nM IgE",17.1 nM
GGGAAAAGCGAAUCAUACACAAGACGUCAGUAAGAUUGAGUGUAUGGUUCCUGGUGGACAAUAAUGGCUCCGCCAGAGACCAACCGAGAA [rRfY clone SEQ 21],Kd,"[1]; 2'-F C and U, biphasic, KD2 27.1 nM, 1xSHMCK + tRNA, RT",0.183 nM
same,IC50,"[2]; 2'-F C,U, ELISA FceR1-Fc, FACS 14.4 nM (Table 25)",3.7 nM
GGAAAAGCGAAUCAUACACAAGAGUCGCGAUAGAUUGCUUGUGAAUGGUUUUGGUGGAAGCGGGCUCCGCCAGAGACCAACCGAGAA [rRfY clone SEQ 12],Kd,"[1]; 2'-F C and U, biphasic, KD2 9.85 nM, 1xSHMCK + 0.1 mg/mL tRNA, RT",0.057 nM
same,IC50,"[2]; 2'-F C,U, ELISA FceR1-Fc, FACS 7.1 nM (Table 25)",5 nM
AGCCUGGGGACCCAUGGGGGGCU [ARC1641],Kd,"[1]; mAmGmCmCmUdGmGdG-s-dGmAmCmCmCmAmU-s-dG-s-mGdG-s-dGdI-s-dGmCmU-3T [2'-OMe 1-5,7,10-15,17,22,23, dI20 (inosine, parent base G), phosphorothioate 8/9,15/16,16/17,18/19,20/21 (N linkage letters left out), 3' inverted dT24], dPBS Ca/Mg + BSA, RT",0.4 nM
same,IC50,"[2]; 2'-OMe/2'-deoxy mix, dI20, PS, 3' idT [dI at 20 (written as parent G), PS after 8,15,16,18,20, 2'-OMe/2'-deoxy mix, 3' idT left out], FACS, 2.5 nM IgE",1.8 nM
AGCCUGGGGACCCAUGGGGGGCU [ARC1642],Kd,"[1]; 2'-OMe/2'-deoxy mix, dI16,dI20, PS, 3' idT [16=dI, 20=dI (G parent), 24=3' inverted dT, phosphorothioate linkage N's left out], DPBS Mg/Ca, 0.1 mg/mL BSA, RT",0.4 nM
same,IC50,"[2]; 2'-OMe/2'-deoxy mix, dI16,dI20, PS, 3' idT [16=dI, 20=dI (G parent), 24=3' inverted dT, phosphorothioate linkage N's left out], FACS, 2.5 nM IgE",1.8 nM
UAGCCUGGGGACCCAUGGGGGGCUA [ARC446],Kd,[1]; [4],43 nM
same,IC50,[2]; [3],33.8 nM
GGGGCTACTTTATCCGTTCCTCCTAGTGGGTAGCCCC [ARC480],Kd,[1],0.2 nM
same,IC50,"[2]; FACS, 15 nM IgE",9.7 nM
AGCCUGGGGACCCAUGGGGGGCU [ARC1729],Kd,"[1]; 2'-OMe/2'-deoxy mix, dI16,dI18,dI20, PS as printed, 3' idT [16=dI, 18=dI, 20=dI (G parent), 24=3' inverted dT, 2'-OMe at 1-5,7,10-15,17,22,23, phosphorothioate linkage N's left out (5^6, 7^8, 8^9, 15^16, 17^18, 18^19, 19^20, 20^21)], DPBS Mg/Ca, 0.1 mg/mL BSA, RT",1 nM
same,IC50,"[2]; 2'-OMe/2'-deoxy mix, dI16,dI18,dI20, PS as printed, 3' idT [16=dI, 18=dI, 20=dI (G parent), 24=3' inverted dT, 2'-OMe at 1-5,7,10-15,17,22,23, phosphorothioate linkage N's left out (5^6, 7^8, 8^9, 15^16, 17^18, 18^19, 19^20, 20^21)], FACS, 2.5 nM IgE",2.9 nM
AGCCUGGGGACCCAUGGGGGGCU [ARC1337],Kd,"[1]; as printed dA-s-mGmCmCmUdGmGdGdG-s-mAmCmCmCmAmU-s-dG-s-mGdGdGdG-s-dGmCmU-3T [deoxy: 1,6,8,9,16,18-21, 2'-OMe: 2-5,7,10-15,17,22,23, phosphorothioate after 1,9,15,16,20 (also after 18 per given string), 24 = 3' inverted dT], dPBS Ca/Mg + BSA, RT",0.2 nM
same,IC50,"[2]; 2'-OMe/2'-deoxy mix, PS, 3' idT [PS after 1,9,15,16,18,20, 2'-OMe/2'-deoxy mix, 3' idT left out], FACS, 2.5 nM IgE",4.7 nM
GGGAAAAGCGAAUCAUACACAAGAUCCGAGGGUGGGCAAUAGGCUCACAAGGGUUUCGCGUGAUGCUCCGCCAGAGACCAACCGAGAA [rRfY clone SEQ 18],Kd,"[1]; 2'-F C and U, biphasic, KD2 27.3 nM, 1xSHMCK + tRNA, RT",1.14 nM
same,IC50,"[2]; 2'-F C,U, ELISA FceR1-Fc, FACS 35 nM (Table 25)",51.3 nM
AGCCUGGGGACCCAUGGGGGGCU [ARC1382],Kd,"[1]; 2'-OMe/2'-deoxy mix, PS linkages as in Table 17, 3' idT [phosphorothioate linkages (internal N, left out) between 8-9, 18-19, 20-21, 2'-OMe/2'-deoxy mix (positions not given), 3' inverted dT at 24], DPBS Mg/Ca, 0.1 mg/mL BSA, RT",1.1 nM
same,IC50,"[2]; 2'-OMe/2'-deoxy mix, PS linkages as in Table 17, 3' idT [phosphorothioate linkages (internal N, left out) between 8-9, 18-19, 20-21, 2'-OMe/2'-deoxy mix (positions not given), 3' inverted dT at 24], FACS, 2.5 nM IgE",6.9 nM
AGCCUGGGGACCCAUGGGGGGCU [ARC1383],Kd,"[1]; 2'-OMe/2'-deoxy mix, PS linkages as in Table 17, 3' idT [phosphorothioate linkages (internal N, left out) between 8-9, 15-16, 18-19, 20-21, 2'-OMe/2'-deoxy mix (positions not given), 3' inverted dT at 24], DPBS Mg/Ca, 0.1 mg/mL BSA, RT",1 nM
same,IC50,"[2]; 2'-OMe/2'-deoxy mix, PS linkages as in Table 17, 3' idT [phosphorothioate linkages (internal N, left out) between 8-9, 15-16, 18-19, 20-21, 2'-OMe/2'-deoxy mix (positions not given), 3' inverted dT at 24], FACS, 2.5 nM IgE",7.5 nM
AGUUCUGGGGACCCAUGGGGGAACU [ARC443],Kd,[1]; [4],55 nM
same,IC50,[2]; [3],30.2 nM
AGCCUGGGGACCCAUGGGGGGCU [ARC1572],Kd,"[1]; 2'-OMe/2'-deoxy mix, PS linkages as in Table 17, 3' idT [phosphorothioate linkages (internal N, left out) between 5-6, 7-8, 8-9, 15-16, 17-18, 18-19, 19-20, 20-21, 2'-OMe/2'-deoxy mix (positions not given), 3' inverted dT at 24], DPBS Mg/Ca, 0.1 mg/mL BSA, RT",0.3 nM
same,IC50,"[2]; 2'-OMe/2'-deoxy mix, PS linkages as in Table 17, 3' idT [phosphorothioate linkages (internal N, left out) between 5-6, 7-8, 8-9, 15-16, 17-18, 18-19, 19-20, 20-21, 2'-OMe/2'-deoxy mix (positions not given), 3' inverted dT at 24], FACS, 2.5 nM IgE",22.8 nM
AGCCUGGGGACCCAUGGGGGGCU [ARC1643],Kd,"[1]; 2'-OMe/2'-deoxy mix, dI20, PS, 3' idT [20=dI (G parent), 24=3' inverted dT, phosphorothioate linkage N's left out (5^6, 7^8, 8^9, 15^16, 17^18, 18^19, 19^20, 20^21)], DPBS Mg/Ca, 0.1 mg/mL BSA, RT",1.1 nM
same,IC50,"[2]; 2'-OMe/2'-deoxy mix, dI20, PS, 3' idT [20=dI (G parent), 24=3' inverted dT, phosphorothioate linkage N's left out (5^6, 7^8, 8^9, 15^16, 17^18, 18^19, 19^20, 20^21)], FACS, 2.5 nM IgE",8 nM
AGCCUGGGGACCCAUGGGGGGCU [ARC1573],Kd,"[1]; as printed mAmGmCmCmU-s-dG-s-mG-s-dG-s-dGmAmCmCmCmAmU-s-dG-s-mG-s-dG-s-dG-s-dG-s-dG-s-mCmU-3T [2'-OMe: 1-5,7,10-15,17,22,23, deoxy: 6,8,9,16,18-21, phosphorothioate after 5-8,15-21, 24 = 3' inverted dT], dPBS Ca/Mg + BSA, RT",0.4 nM
same,IC50,"[2]; 2'-OMe/2'-deoxy mix, PS, 3' idT [PS after 5,6,7,8,15,16,17,18,19,20,21, 2'-OMe/2'-deoxy mix, 3' idT left out], FACS, 2.5 nM IgE",69.4 nM
AGCCUGGGGACCCAUGGGGGGCU [ARC1667],Kd,"[1]; 2'-OMe/2'-deoxy mix, dI18,dI20, PS as printed, 3' idT [18=dI, 20=dI (G parent), 24=3' inverted dT, phosphorothioate linkage N's left out], DPBS Mg/Ca, 0.1 mg/mL BSA, RT",0.4 nM
same,IC50,"[2]; 2'-OMe/2'-deoxy mix, dI18,dI20, PS as printed, 3' idT [18=dI, 20=dI (G parent), 24=3' inverted dT, phosphorothioate linkage N's left out], FACS, 2.5 nM IgE",2.3 nM
GGGAAAAGCGAAUCAUACACAAGAGUGCCGAGGCAUUGCUUGGUAUGGUUCCGGUCUUGUCGGGGCUCCGCCAGAGACCAACCGAGAA [rRfY clone SEQ 19],Kd,"[1]; 2'-F C and U, biphasic, KD2 17.4 nM, 1xSHMCK + tRNA, RT",0.095 nM
same,IC50,"[2]; 2'-F C,U, ELISA FceR1-Fc, FACS 9.9 nM (Table 25)",7.4 nM
GGAAUCAUACACAAGACGUCGCCAGAUUGAGUGUCGUGGUUCC [rRfY minimer SEQ 91],Kd,"[1]; 2'-F C and U, KD2 36.9 nM, 1xSHMCK + tRNA",0.56 nM
same,IC50,"[2]; 2'-F C,U, FACS, 15 nM IgE",3.8 nM
GGGAAAAGCGAAUCAUACACAAGAGGUCUUACAGAUCCUGUGUAGUGGUUCGAUACAUGCGGGGCUCCGCCAGAGACCAACCGAGAA [rRfY clone SEQ 14],Kd,"[1]; 2'-F C and U, biphasic, KD2 99.5 nM, 1xSHMCK + tRNA, RT",1.08 nM
same,IC50,"[2]; 2'-F C,U, ELISA FceR1-Fc, FACS 17.3 nM (Table 25)",26.8 nM
GGGGCTACTTTATCCGTTCCTCTTAGTGGGTAGCCCC [ARC479],Kd,[1],0.4 nM
same,IC50,"[2]; FACS, 15 nM IgE",14.4 nM

# Source: patent US20090018093
